B1: ERO1-like protein alpha (Homo sapiens), Q96HE7 (parent)
chain: MGRGWGFLFGLLGAVWLLSSGHGEEQPPETAAQRCFCQVSGYLDDCTCDVETIDRFNNYRLFPRLQKLLESDYFRYYKVNLKRPCPFWNDISQCGRRDCAVKPCQSDEVPDGIKSASYKYSEEANNLIEECEQAERLGAVDESLSEETQKAVLQWTKHDDSSDNFCEADDIQSPEAEYVDLLLNPERYTGYKGPDAWKIWNVIYEENCFKPQTIKRPLNPLASGQGTSEENTFYSWLEGLCVEKRAFYRLISGLHASINVHLSARYLLQETWLEKKWGHNITEFQQRFDGILTEGEGPRRLKNLYFLYLIELRALSKVLPFFERPDFQLFTGNKIQDEENKMLLLEILHEIKSFPLHFDENSFFAGDKKEAHKLKEDFRLHFRNISRIMDCVGCFKCRLWGKLQTQGLGTALKILFSEKLIANMPESGPSYEFHLTRQEIVSLFNAFGRISTSVKELENFRNLLQNIH

Variants of: B1
Settings: with pdia1_human P4HB

effect of a mutation on the interaction | Variant
disrupting interaction | MGRGWGFLFGLLGAVWLLSSGHGEEQPPETAAQRCFCQVSGYLDDCTCDVETIDRFNNYRLFPRLQKLLESDYFRYYKVNLKRPCPFWNDISQSGRRDCAVKPCQSDEVPDGIKSASYKYSEEANNLIEECEQAERLGAVDESLSEETQKAVLQWTKHDDSSDNFCEADDIQSPEAEYVDLLLNPERYTGYKGPDAWKIWNVIYEENCFKPQTIKRPLNPLASGQGTSEENTFYSWLEGLCVEKRAFYRLISGLHASINVHLSARYLLQETWLEKKWGHNITEFQQRFDGILTEGEGPRRLKNLYFLYLIELRALSKVLPFFERPDFQLFTGNKIQDEENKMLLLEILHEIKSFPLHFDENSFFAGDKKEAHKLKEDFRLHFRNISRIMDCVGCFKCRLWGKLQTQGLGTALKILFSEKLIANMPESGPSYEFHLTRQEIVSLFNAFGRISTSVKELENFRNLLQNIH [C94S]

— IntAct's records for PubMed 20802462
